Data: PMC13139468, “A model for drug transport across two membranes of Gram-negative bacteria by an MFS tripartite assembly” (Nature Communications, 2026)

B2: EmrA (EmrA part of the EmrB-EmrA fusion protein, C-terminal 6His) (natural protein)
chain: MSANAETQTPQQPVKKSGKRKRLLLLLTLLFIIIAVAIGIYWFLVLRHFEETDDAYVAGNQIQIMSQVSGSVTKVWADNTDFVKEGDVLVTLDPTDARQAFEKAKTALASSVRQTHQLMINSKQLQANIEVQKIALAKAQSDYNRRVPLGNANLIGREELQHARDAVTSAQAQLDVAIQQYNANQAMILGTKLEDQPAVQQAATEVRNAWLALERTRIISPMTGYVSRRAVQPGAQISPTTPLMAVVPATNMWVDANFKETQIANMRIGQPVTITTDIYGDDVKYTGKVVGLDMGTGSAFSLLPAQNATGNWIKVVQRLPVRIELDQKQLEQYPLRIGLSTLVSVNTTNRDGQVLANKVRSTPVAVSTAREISLAPVNKLIDDIVKANAG
notes: also called EmrB-EmrA fusion protein (EmrA part); fused EmrA; not shown: His6, C-terminal, kept

Legend:
[1] = molecular target: the molecule itself; experiment: cryo-EM structure; EmrAB-TolC pump-FA (EmrB-EmrA fusion protein, wild-type free EmrA, TolC-FLAG), co-expressed and purified as a complex, in peptidisc, 0.1 mg/mL, graphene-covered grids; single-particle cryo-EM, 300 kV; maps at 3.59 Å and 3.66 Å
TolC (TolC-FLAG) [2] = molecular target: T1, TolC (TolC-FLAG) (E. coli K-12 strain MG1655, UniProt P02930 23-493); experiment: as above; conditions: both partners purified
T1 construct: also called TolC OM channel; not shown: FLAG, C-terminal, kept
T1 sequence: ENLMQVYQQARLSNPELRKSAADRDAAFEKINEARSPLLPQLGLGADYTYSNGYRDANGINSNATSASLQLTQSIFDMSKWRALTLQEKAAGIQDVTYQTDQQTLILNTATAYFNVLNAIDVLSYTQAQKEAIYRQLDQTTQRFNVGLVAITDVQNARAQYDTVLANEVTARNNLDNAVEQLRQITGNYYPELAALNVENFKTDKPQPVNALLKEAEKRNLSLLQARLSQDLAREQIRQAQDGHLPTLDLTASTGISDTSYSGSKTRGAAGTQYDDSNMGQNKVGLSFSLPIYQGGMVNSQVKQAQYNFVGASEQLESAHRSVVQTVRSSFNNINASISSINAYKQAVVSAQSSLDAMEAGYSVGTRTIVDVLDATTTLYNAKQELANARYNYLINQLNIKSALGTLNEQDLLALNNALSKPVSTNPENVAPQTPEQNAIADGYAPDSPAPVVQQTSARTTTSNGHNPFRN

[3] = molecular target: T2, EmrB (modified EmrB, the BRIL-EmrB-ALFA part of the EmrB-EmrA fusion protein) (E. coli K-12 strain MG1655, UniProt P0AEJ0 13-498); experiment: as above; conditions: both partners purified
T2 construct: also called EmrB IM transporter; EmrB-EmrA fusion protein (EmrB part); not shown: BRIL (thermostabilized apocytochrome b562RIL), N-terminal, kept; ALFA, C-terminal, kept
T2 sequence: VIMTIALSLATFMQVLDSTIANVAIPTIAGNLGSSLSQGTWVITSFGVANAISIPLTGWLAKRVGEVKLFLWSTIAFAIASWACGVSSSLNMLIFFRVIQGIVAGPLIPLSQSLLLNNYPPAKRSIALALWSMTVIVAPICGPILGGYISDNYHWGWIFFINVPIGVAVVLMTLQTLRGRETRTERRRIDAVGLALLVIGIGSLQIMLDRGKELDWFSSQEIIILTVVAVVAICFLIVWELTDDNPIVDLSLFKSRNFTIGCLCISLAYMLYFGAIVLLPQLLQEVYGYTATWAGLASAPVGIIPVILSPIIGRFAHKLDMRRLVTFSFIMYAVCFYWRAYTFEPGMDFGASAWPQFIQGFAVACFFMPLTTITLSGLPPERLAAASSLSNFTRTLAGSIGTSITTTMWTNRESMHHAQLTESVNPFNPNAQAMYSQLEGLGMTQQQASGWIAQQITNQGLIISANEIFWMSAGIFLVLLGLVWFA

[4] = molecular target: T2, EmrB (modified EmrB, the BRIL-EmrB-ALFA …); experiment: cryo-EM structure; EmrAB-TolC pump-EA (EmrB-EmrA fusion protein, modified free EmrA, TolC-FLAG), co-expressed and purified as a complex, in peptidisc, 0.7 mg/mL, holey carbon grids; single-particle cryo-EM, 300 kV; maps at 3.13 Å and 3.14 Å; conditions: both partners purified
[5] = molecular target: B2; experiment: as above; conditions: both partners purified
[6] = molecular target: the molecule itself; experiment: as above
TolC (TolC-FLAG) [7] = molecular target: T1, TolC (TolC-FLAG); experiment: as above; conditions: both partners purified

B1: wild-type free EmrA (natural protein)
chain: MSANAETQTPQQPVKKSGKRKRLLLLLTLLFIIIAVAIGIYWFLVLRHFEETDDAYVAGNQIQIMSQVSGSVTKVWADNTDFVKEGDVLVTLDPTDARQAFEKAKTALASSVRQTHQLMINSKQLQANIEVQKIALAKAQSDYNRRVPLGNANLIGREELQHARDAVTSAQAQLDVAIQQYNANQAMILGTKLEDQPAVQQAATEVRNAWLALERTRIISPMTGYVSRRAVQPGAQISPTTPLMAVVPATNMWVDANFKETQIANMRIGQPVTITTDIYGDDVKYTGKVVGLDMGTGSAFSLLPAQNATGNWIKVVQRLPVRIELDQKQLEQYPLRIGLSTLVSVNTTNRDGQVLANKVRSTPVAVSTAREISLAPVNKLIDDIVKANAG
notes: also called free EmrA of pump-FA
- stoichiometry N [1]: 6
- binding result (TolC (TolC-FLAG) [2]): binds
- binding result [3]: binds

Binder: B2
- binding result (TolC (TolC-FLAG) [2]): binds
- binding result [4]: binds

B3: modified free EmrA (N-terminal residues 1-47 replaced by residues 1-27 of AcrA) (other)
chain: CDDHFEETDDAYVAGNQIQIMSQVSGSVTKVWADNTDFVKEGDVLVTLDPTDARQAFEKAKTALASSVRQTHQLMINSKQLQANIEVQKIALAKAQSDYNRRVPLGNANLIGREELQHARDAVTSAQAQLDVAIQQYNANQAMILGTKLEDQPAVQQAATEVRNAWLALERTRIISPMTGYVSRRAVQPGAQISPTTPLMAVVPATNMWVDANFKETQIANMRIGQPVTITTDIYGDDVKYTGKVVGLDMGTGSAFSLLPAQNATGNWIKVVQRLPVRIELDQKQLEQYPLRIGLSTLVSVNTTNRDGQVLANKVRSTPVAVSTAREISLAPVNKLIDDIVKANAG
modifications: C25 (AcrA numbering) modified by a palmitoyl acid chain
notes: also called acrAsignal-ΔemrA; free EmrA of pump-EA
- binding result [5]: binds
- stoichiometry N [6]: 6
- binding result (TolC (TolC-FLAG) [7]): binds
- binding result [4]: binds
